Substrate: O=P(O)(O)OP(=O)(O)O
Experiment: PPi hydrolysis in inverted membrane vesicles, automatic Pi analyzer, two-site dimer equation
Assay type: biochemical, Thermotoga maritima
Conditions: 40°C, pH 7.2, 0.1 M MOPS-KOH, 5 mM Mg2+, 10 mM NaCl, first (stronger) site of the dimer, concentration counted as Mg2PPi complex
Description: PPi hydrolysis in inverted membrane vesicles, automatic Pi analyzer, two-site dimer equation on Tm‐mPPase (Thermotoga maritima membrane pyrophosphatase)

B1: Tm‐mPPase (Thermotoga maritima membrane pyrophosphatase) (Thermotoga maritima MSB8) (protein)
chain: MYVAALFFLIPLVALGFAAANFAAVVRKPEGTERMKEISSYIRSGADSFLAHETKAIFKVAIVIAILLMIFTTWQTGVAFLLGAVMSASAGIVGMKMATRANVRVAEAARTTKKIGPALKVAYQGGSVMGLSVGGFALLGLVLVYLIFGKWMGQVDNLNIYTNWLGINFVPFAMTVSGYALGCSIIAMFDRVGGGVYTKAADMAADLVGKTELNLPEDDPRNPATIADNVGDNVGDVAGLGADLLESFVGAIVSSIILASYMFPIYVQKIGENLVHQVPKETIQALISYPIFFALVGLGCSMLGILYVIVKKPSDNPQRELNISLWTSALLTVVLTAFLTYFYLKDLQGLDVVGFRFGAISPWFSAIIGIFSGILIGFWAEYYTSYRYKPTQFLSKSSIEGTGMVISNGLSLGMKSVFPPTLTLVLGILFADYFAGLYGVAIAALGMLSFVATSVSVDSYGPIADNAGGISEMCELDPEVRKITDHLDAVGNTTAAIGKGFAIGSAIFAALSLFASYMFSQISPSDIGKPPSLVLLLNMLDARVIAGALLGAAITYYFSGYLISAVTKAAMKMVDEIRRQAREIPGLLEGKAKPDYNRCIEITSDNALKQMGYPAFIAILTPLVTGFLLGAEFVGGVLIGTVLSGAMLAILTANSGGAWDNAKKYLEAGNLEGYGKGSEPHKALVIGDTVGDPLKDTVGPSLDILIKIMSVVSVIAVSIFKHVHLF
notes: recombinant in E. coli C41(DE3), assayed in inverted membrane vesicles; homodimer, subunit mass 77 kDa
Work on B1 yielded a Km of 1.41 ± 0.04 µM.

From PMC9405524, “Pre‐steady‐state kinetics and solvent isotope effects support the “billiard‐type” transport mechanism in Na ^+‐translocating pyrophosphatase” (Protein Science : A Publication of the Protein Society, 2022)
